Laboratory results as given in PMC5861432.

Assays:
[1] = molecular target: T1, IRF3(6D) (human, UniProt Q14653 1-427, S386D;S396D;S398D;S402D;T404D;S405D); test: EMSA
T1 sequence: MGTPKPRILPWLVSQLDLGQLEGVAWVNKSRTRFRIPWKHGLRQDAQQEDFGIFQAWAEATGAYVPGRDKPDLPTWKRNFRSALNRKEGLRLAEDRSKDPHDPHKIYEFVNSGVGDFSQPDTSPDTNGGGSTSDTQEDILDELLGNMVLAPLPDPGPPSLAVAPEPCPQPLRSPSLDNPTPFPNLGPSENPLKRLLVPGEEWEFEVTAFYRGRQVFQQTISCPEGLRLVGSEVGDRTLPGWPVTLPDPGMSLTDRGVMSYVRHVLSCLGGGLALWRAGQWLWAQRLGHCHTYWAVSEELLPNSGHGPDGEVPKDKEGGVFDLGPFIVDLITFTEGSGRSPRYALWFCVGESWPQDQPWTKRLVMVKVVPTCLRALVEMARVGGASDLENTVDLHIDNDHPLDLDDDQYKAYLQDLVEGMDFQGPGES

[2] = molecular target: T1, IRF3(6D); test: PBM
[3] = molecular target: IRF5(4D) (human, UniProt Q13568-2 1-514, S451D;S453D;S456D;S462D); test: PBM

B1: proximal dimer (2-bp spacer) (dsDNA)
DNA 1: GCACCGCTAACCGAAACCGAAACTGTGC
DNA 2: GCACAGTTTCGGTTTCGGTTAGCGGTGC
[1]
  binding result: binds

B2: C-2 PBM probe (dsDNA)
DNA 1: GCCTAGCACTAACCGAAACCGAAACCTAAGTGCTAGGTCTTGATTCGCTTGACGCTGCTG
DNA 2: CAGCAGCGTCAAGCGAATCAAGACCTAGCACTTAGGTTTCGGTTTCGGTTAGTGCTAGGC
[2]
  binding result: binds
[3]
  binding result: binds
